Source: PMC10955559

Key:
Assay in all cases: purified protein
Conditions in all cases: 100 mM sodium acetate, pH 5.5, 37 °C, 30 min, no added calcium
purified protein [1] = substrate: OC[C@H]1O[C@@](CO)(O[C@H]2O[C@H](CO)[C@@H](O)[C@H](O)[C@H]2O)[C@@H](O)[C@@H]1O; type: biochemical, Aedes aegypti
purified protein [2] = substrate: OC[C@H]1O[C@@](CO)(O[C@H]2O[C@H](CO)[C@@H](O)[C@H](O)[C@H]2O)[C@@H](O)[C@@H]1O; type: biochemical, Anopheles gambiae
purified protein [3] = substrate: OC[C@H]1O[C@@](CO)(O[C@H]2O[C@H](CO)[C@@H](O)[C@H](O)[C@H]2O)[C@@H](O)[C@@H]1O; type: biochemical, Culex quinquefasciatus

B1: AeGluc (Aedes aegypti) (protein)
chain: LDWWEHGNFYQVYPRSFKDSDGDGIGDLDGVTEKLKYLKDIGMDGVWLSPIFSSPMADFGYDISNFREIQTEYGDLDAFQRLSDKCKQLGLHLILDFVPNHTSDQHEYFKKSVQKDETYKDFYVWHPGVHGPNNTKVPPSNWISVFRGSSWEWNEERQEFYLHQFLKEQPDLNYRNPAVVEEMKNVLRYWLDRGVSGFRIDAVPYLFESDIIDGRYRNEPESRTTDDPENPAYLVHTQTMDQPETYDMIYQWRAVLDEYSKTDNRTRIMMTEGYTSLPKIIEFFGNATANGAQIPFNFEVISNVKKNSTGADFATYVKRWLDAKPANRRSNWVLGNHDNNRLGSRLGENKIDLYNIALQTLPDIAVTYYGEEIGMLDQWIPWNETVDPAACRSDEASYSAYSRDPARTPMQWDSGKNAGFSKAAKTWLPVADNYKTLNVKIQDRARKSHLKIFKKLTKYRKRQILTEGDIDIKVSGENLLVYKRKVDKVGYVVVALNFGTEPVALGLSSLFDRADQRMQVVVSSNRVSTPDNVWVDVDNYVLIGESGIVLQYLWGKNPIVS
Purified protein [1]
  Km: 47.6 ± 16.3 mM
  Vmax: 740 µM/min
  kcat: 805 ± 66.7 s⁻¹
  kcat/Km: 16900 ± 1380 M⁻¹ s⁻¹

B2: AnGluc (Anopheles gambiae) (protein)
chain: HRPLPIRKAHKFDWWERGNFYQIYPRSFKDSDGDGIGDLKGITQTIDYLKTIGIDGVWLSPIFKSPMNDFGYDISDFYAIQEEYGTMEDFEELAAKCASIGLKLILDFVPNHSSDEHEHFRLSEEGIEPYKDYYIWHSGVLDANGTRHPPSNWISVFRGSAWQWSDKRQQYYLHQFQKKQPDLNYRNPALVEEMKNVMRFWLNKGIAGFRIDALPYLFESEEVDGHYRDEPLSGQATDDPDNPAYLTHTETKDQPETYDMVHQWRQVVDEYTARDNFTRIILTEAYTAVQNMTRFYGTPAAPGAQIPFNFQLITLLTVNSTGRDFVNAVQSWTRAMPSGAIANWVLGNHDNSRIASRLGVARADLYNIALQTLPGIAVTYYGEEIAMVDQWISWNDTIDPAACNADPATYELYSRDPVRTPFQWSNGTNAGFSNASRTWLPVADGYRELNVAAQLAAPRSHLKTFMQLTAYRKRRLLAEGNFVLRTVGRDLVMYKRSVPGVGYVVVALNFGPEPATLPVASQFPGTGEHWLKVIASSLQAQPQAGTWINTRLYKLAPDSGIVLERLTGRNDLMT
Purified protein [2]
  Km: 20.4 ± 7.4 mM
  Vmax: 740 µM/min
  kcat: 815 ± 60 s⁻¹
  kcat/Km: 40000 ± 2920 M⁻¹ s⁻¹

B3: CxGluc (Culex quinquefasciatus) (protein)
chain: LQWWEHGNFYQVYPRSFKDSDGNGIGDLDGVTEKLQYLKDVGMDGIWLSPIFASPMADFGYDISDFYNIQGEYGDLAAFERLSAKCKELGLRLILDFVPNHTSNQHEYFKKSVQKEDPYTNYYVWHPGVTNEDGTKSPPSNWISVFRGSAWEWNEDRQEYYLHQFLKEQPDLNYRDPALVEEMKNVLKFWLNKGVSGFRIDAVPYLFESVEVENRYVDEPLSRATDDAENPAYLIHNQTMDQPETYDMIYQWRAVLDEFTAKDNQTRIMMTEGYTSIPNVMKFFGEGEQNGAQIPFNFQMISNLRKTSTAADFARYANLWLDNLPAGRRSNWVLGNHDNNRIGSRLGEAKIDLYNIALQTLPDIAVTYYGEEIGMVDQPIPFNETVDPAGLRAGPDDYTLYSRDPARTPMQWNSDKNAGFSSADKTWLPVATNYKQLNVKAQDAAQKSHLKLFKRLTTYRKRQILTHGDLDLRTTDSNLVLYKRKVDKVGYVVVVLNFSDEPQSLAAIKQQFPGADDRLQVVASSKLVTIKDNKWINVADTELPGESAIVLQKLWGPNPVVVYEA
Purified protein [3]
  Km: 40.1 ± 15.1 mM
  Vmax: 690 µM/min
  kcat: 750 ± 75 s⁻¹
  kcat/Km: 18700 ± 1850 M⁻¹ s⁻¹
